Measurements as given in the Human Domainome abundance scans (Beltran et al. 2025).

B1: Protein C-ets-1, residues 55 to 135; numbered along this chain, P14921 (parent)
chain: GFTKEQQRLGIPKDPRQWTETHVRDWVMWAVNEFSLKGVDFQKFCMNGAALCALGKDCFLELAPDFVGDILWEHLEILQKE
B2: Transcription factor SOX-11, residues 50 to 117; numbered along this chain, P35716 (parent)
chain: KRPMNAFMVWSKIERRKIMEQSPDMHNAEISKRLGKRWKMLKDSEKIPFIREAERLRLKHMADYPDYK

Variants of: B1
Test: abundance fitness (aPCA) (normalised: wild type 0, dead -1); higher = more abundant; growth selection in yeast, the domain comes from the species named
Details: Homo sapiens

Abundance fitness of substitutions, site by site:
E81: D -0.003
E73: D 0.04 | I -0.651 | C -0.252 | H -0.315 | L -0.246 | Y -0.319 | M -0.277 | V -0.546 | P -0.898 | G -0.08 | Q -0.032 | F -0.251 | W -0.142 | T -0.19 | A -0.079 | K 0.004 | R -0.088
P64: S -0.202 | Q -0.288 | F -0.896 | W -0.938 | M -1.06 | E -0.239 | G 0.032 | N -0.296 | T -0.194 | K -0.6 | Y -0.728 | I -0.891 | H -0.34 | L -0.861 | V -0.836
D69: E -0.035 | S -0.053 | M -0.055 | Y -0.038 | L -0.057 | F -0.301 | R -0.09 | T -0.134 | V -0.098 | N -0.002 | H -0.153 | I -0.038 | G -0.059 | A -0.031 | W -0.262 | P 0.015 | C -0.167 | K -0.057 | Q -0.03
L62: R -0.103 | I -0.049 | H -0.438 | Q -0.3 | A -0.434 | K -0.195 | Y -0.141 | N -0.419 | S -0.401 | V -0.34 | G -0.461 | E -0.655 | F -0.298 | C -0.265 | D -0.968 | P -0.954
E76: C -0.092 | S -0.021 | M 0.04 | D -0.015 | V -0.108 | W -0.109 | R -0.072 | G -0.036 | A -0.043 | T -0.14 | F -0.273 | P -0.205 | L -0.094 | K -0.053 | Q -0.043 | H -0.085 | N 0.057 | I -0.267 | Y 0.029
F66: S 0.036 | P 0.048 | I 0.021 | L -0.022 | H 0.095 | A 0.02 | E -0.002 | R 0.033 | M -0.032 | D 0.051 | N 0.073 | K 0.053 | C -0.031 | T 0.037
L71: C -0.834 | S -0.805 | K -0.978 | M -0.176 | V -1.05 | G -0.932 | P -0.891 | R -0.979 | E -0.881 | Q -0.938 | F -0.697 | N -0.128 | A -1.15 | W -0.946 | T -0.883 | D -0.657
L75: K -0.466 | T -1.02 | G -0.935 | I -0.21 | H -0.914 | R -0.863 | C -0.964 | Y -0.62 | N -0.697 | W -0.097 | M -0.169 | A -0.921 | D -0.91 | S -0.796 | E -0.952 | P -0.898 | V -0.721
I77: G 0.027 | C -0.021 | Y -0.043 | E -0.031 | M -0.009 | H 0.076 | V 0.029 | R -0.025 | F -0.013 | K 0.052 | P -0.346 | L 0.053 | T 0.01 | Q -0.029 | W -0.033 | D -0.033 | S 0.065 | N 0.17 | A 0.008
K80: N 0.029
I70: C -0.088 | K -0.065 | L -0.077 | A -0.105 | Y -0.146 | M -0.102 | Q -0.035 | W -0.398 | R -0.036 | F -0.17 | D -0.532 | G -0.705 | N -0.546 | E -0.365 | P -0.289 | T -0.008 | S -0.228 | V -0.038
H74: E -0.027 | K -0.273 | S -0.08 | T -0.265 | A -0.135 | V -0.419 | N -0.043 | Q -0.02 | D -0.214 | C -0.137 | R -0.222 | L -0.198 | F -0.4 | Y -0.454 | M -0.271 | W -0.611 | P -0.794 | G -0.346
G68: L -0.549 | Q -0.727 | N -0.265 | V -0.261 | Y -0.654 | K -0.678 | E -0.994 | W -0.655 | H -0.541 | C -0.156 | T -0.204 | A -0.116 | S -0.124 | D -0.792
W72: P -1.15 | M -0.389 | F -0.098 | T -1 | V -0.918 | D -1.07 | S -0.735 | Y 0.11 | R -0.577 | H -0.361 | L -0.316 | C -0.62 | N -0.746 | I -1.06 | A -0.52 | Q -0.804
E61: H -0.089 | K 0.066 | A -0.012 | D -0.013 | R -0.033 | C -0.202 | I -0.685 | V -0.52 | L -0.248 | F -0.772 | Y -0.908 | M -0.286 | N -0.022 | W -0.908 | S -0.011 | P -0.234
D65: Y -0.04 | F -0.221 | H -0.09 | L -0.09 | S 0.006 | W -0.311 | A 0.004 | G 0.024 | N 0.084 | K -0.01 | I -0.008 | C -0.057 | T 0.027 | P 0.076 | V -0.043 | E 0.01 | M -0.019
A63: W -0.014 | I -0.038 | S -0.114 | Y -0.299 | V 0.007 | P -1.01 | L -0.016 | D -0.873 | M -0.115 | N -0.399 | H -0.096 | R -0.924 | G -0.262 | Q -0.282 | C 0.02 | K -0.635 | T -0.134
Q79: H -0.178
V67: K -0.305 | N -0.242 | E 0.081 | G -0.018 | I -0.159 | H -0.284 | A -0.062 | L -0.256 | Q -0.069 | W -0.414 | S -0.002 | C -0.04 | T -0.057 | R -0.167 | D -0.138 | Y -0.319 | F -0.267
L60: Q 0.027 | W -0.43 | R -0.042 | T 0.001 | Y -0.058
L78: M -0.116 | I -0.098 | A -0.299 | Q -0.199 | T -0.289 | Y -0.463 | R -0.583 | F -0.39 | P -0.513 | C -0.16 | H -0.553 | N -0.775 | K -0.649 | E -0.5 | S -0.508 | V -0.097 | G -0.566 | D -0.486 | W -0.244

Variants of: B2
Test: as above
Details: Homo sapiens

Abundance fitness of substitutions, site by site:
I47: C -0.567 | K -0.198
V9: L 0.177
P23: R -0.74
R51: V -0.075
R55: F -0.356 | V -0.343
A28: I -0.205
R57: T -0.023
F49: T -0.558
K36: W -0.535
G35: I 0.173
P3: V -0.294
K68: L -0.642
M19: E -0.069
D66: P -0.234
R2: E -0.165
S44: P -0.752
R16: E 0.082
D24: C -0.435
K39: G -0.084
N5: V -0.491
